Laboratory results reported in publication doi:10.1101/2023.04.03.535218, “Distributable, Metabolic PET Reporting of Tuberculosis” (bioRxiv, 2023).

Assays:
[1] = substrate: O=P(O)(O)OC[C@H]1O[C@H](O[C@H]2O[C@H](CO)[C@@H](O)[C@H](O)[C@H]2O)[C@H](O)[C@@H](O)[C@@H]1O; test: continuous 1H NMR assay; format: biochemical, Escherichia coli; conditions: 37 °C
Description: continuous 1H NMR assay on OtsB

[2] = substrate: O=P(O)(O)OC[C@H]1O[C@H](O[C@H]2O[C@H](CO)[C@@H](O)[C@H](O)[C@H]2O)[C@H](O)[C@@H](O)[C@@H]1O; test: table note: endpoint HPLC; Methods: malachite green assay; format: biochemical, Escherichia coli; conditions: method note of the table (HPLC, fixed Glc, 70 °C) does not fit this enzyme
Description: table note: endpoint HPLC; Methods: malachite green assay on OtsB^Sf

Protein | Km [1] | kcat [1] | kcat/Km [1] | Km [2] | kcat [2] | kcat/Km [2]
OtsB (Escherichia coli K-12) (protein, expressed in E. coli) MTEPLTETPELSAKYAWFFDLDGTLAEIKPHPDQVVVPDNILQGLQLLATASDGALALISGRSMVELDALAKPYRFPLAGVHGAERRDINGKTHIVHLPDAIARDISVQLHTVIAQYPGAELEAKGMAFALHYRQAPQHEDALMTLAQRITQIWPQMALQQGKCVVEIKPRGTSKGEAIAAFMQEAPFIGRTPVFLGDDLTDESGFAVVNRLGGMSVKIGTGATQASWRLAGVPDVWSWLEMITTALQQKRENNRSDDYESFSRSI | 3.6 ± 0.8 mM | 286 ± 34 s⁻¹ | 79000 M⁻¹ s⁻¹ | – | – | –
OtsB^Sf (Escherichia coli K-12) (protein, purified on Ni-NTA) MTEPLTETPELSAKYAWFFDLDGTLAEIKPHPDQVVVPDNILQGLQLLATASDGALALISGRSMVELDALAKPYRFPLAGVHGAERRDINGKTHIVHLPDAIARDISVQLHTVIAQYPGAELEAKGMAFALHYRQAPQHEDALMTLAQRITQIWPQMALQQGKCVVEIKPRGTSKGEAIAAFMQEAPFIGRTPVFLGDDLTDESGFAVVNRLGGMSVKIGTGATQASWRLAGVPDVWSWLEMITTALQQKRENNRSDDYESFSRSI | – | – | – | 2.8 ± 0.7 mM | 740 ± 96 s⁻¹ | 264000 M⁻¹ s⁻¹
